Laboratory results reported in patent US10774132B2, “Ultralong complementarity determining regions and uses thereof” (THE SCRIPPS RESEARCH INSTITUTE, priority 2012, dated 2020).

Assays:
[1] = system: NS2-3 non-structural proteins of BVDV; experiment: Immunocytometric analysis of HEK 293A cells transfected with BVDV antigens; assay type: binding, bovine viral diarrhea virus; settings: 10 μg/ml antibody
Protocol: (§1) Additionally, binding of the chimeric recombinant antibodies to BVDV antigens was evaluated by immunocytometric analysis of transfected human embryonic kidney (HEK) 293A cells (Invitrogen), as previously described (see, e.g., Njongmeta et al. (2012) Vaccine 30:1624-1635). Briefly, HEK 293A monolayers grown in 6-well tissue culture plates were transfected with 2 µg/well of plasmid (pCDNA3.3, Invitrogen) encoding BVDV antigens (N^pro, E2, or non-structural proteins NS2-3) using Lipofectamine 2000 reagent (Invitrogen), and incubated for 48 hr at 37° C. with 5% CO2. The monolayers were fixed with ice-cold 100% methanol for 10 minutes, rinsed with PBS, and after blocking for 1 hr with PBS containing 5% fetal bovine serum (blocking buffer), the monolayers were incubated at room temperature for 1 hr with 10 μg/ml of a mouse anti-FLAG M2-alkaline phosphatase (AP)-conjugate (Sigma) in blocking buffer or 10 μg/ml of the chimeric recombinant antibodies (H12 or B8). […] Following washes in blocking buffer, the AP activity in all the wells was detected using Fast Red AS-MX substrate (Sigma). […]

[2] = system: untransfected HEK293A cells; experiment: Immunocytometric analysis, untransfected HEK293A cells; assay type: binding, human; settings: 10 μg/ml antibody
Protocol: as §1

Mouse NFS-60 cells = experiment: Proliferation assay on mouse NFS-60 cells (AlamarBlue); assay type: cell-based; settings: 72 hours
Protocol: Mouse NFS-60 cells were obtained from American Type Culture Collection (ATCC), VA, and cultured in RPMI-1640 medium supplemented with 10% fetal bovine serum (FBS), 0.05 mM 2-mercapoethanol and 62 ng/ml human macrophage colony stimulating factor (M-CSF). For proliferation assay, mouse NFS-60 cells were washed three times with RPMI-1640 medium and resuspended in RPMI-1640 medium with 10% FBS and 0.05 mM 2-mercapoethanol at a density of 1.5×10^5 cells/ml. In 96-well plates, 100 μl of cell suspension was added into each well, followed by the addition of varied concentrations of bGCSF, BLV1H12 antibody, and the immunoglobulin constructs described herein, Equal volume of PBS buffer was added into the control wells. The plates were incubated at 37° C. in a 5% CO2 incubator for 72 hours. Cells were then treated with AlamarBlue (Invitrogen) ( 1/10 volume of cell suspension) for 4 hours at 37° C. Fluorescence at 595 nm for each well was read to indicate the cell viability.

Human mPB CD34+ cells = experiment: Proliferative activity on human granulocyte progenitors (flow cytometry); assay type: cell-based; settings: 7 days, flow cytometry
Protocol: Human mPB CD34^+ cells were purchased from AllCells. Cells were resuspended in HSC expansion medium (StemSpan SFEM, StemCell Technologies) supplemented with 1× antibiotics and the following recombinant human cytokines: thrombopoietin, IL6, Flt3 ligand, and stem cell factor (100 ng/mL, R & D Systems), then plated in 96-well plates (1000 cells per well), with varied concentrations of BLV1H12-bGCSF fusion antibodies. Cells were cultured for 7 days at 37° C. in a 5% CO2 incubator, then analyzed by flow cytometry to measure cell number and expression of CD45ra and CD41. Cells were stained in staining medium (HBSS supplemented with 2% FBS and 2 mM EDTA) at 4° C. for 1 h with PECy7 anti-CD45ra and eFluor 450 anti-CD41 (eBiosciences), then washed with staining medium and analyzed. Multicolor analysis for cell phenotyping was performed on a LSR II flow cytometer (Becton Dickinson). FIGS. 10A-10E and Tables 9-10 show the human granulocyte progenitor cell proliferative activities of the Ab-GCSF fusion antibodies.

[3] = Pharmacokinetics in mice (ELISA of blood samples); assay type: in vivo; settings: 70 μg injected, BALB/c mice
Protocol: For PK study in mice, 70 μg of the immunoglobulin constructs described herein were injected into 3 BALB/c mice per group. Blood samples were drawn from time 0 to 14 days with extended intervals and analyzed by ELISA using anti-human IgG Fc antibody with horseradish peroxidase (HRP) labeled (KPL) and anti-6×His antibody (“6×His” disclosed as SEQ ID NO: 511) with HRP labeled (Clontech). Data were normalized by taking maximal concentration at the first time point (30 min).

mice neutrophils = experiment: Neutrophil counts in mice, 10th day after injection; assay type: in vivo; settings: blood stained and counted at the 10th day post-injection
Protocol: On the 10th day after injection of BLV1H12-bGCSF fusion antibodies into mice for PK study, blood samples were drawn from the mice and stained using the Diff Quick Staining Kit (Thermo Fisher Scientific, IL). Neutrophils and white blood cells were counted under microscope and the percentages of neutrophils were analyzed. FIGS. 12A-12B and Table 12 show proliferative activities of BLV1H12-bGCSF fusion antibodies on mice neutrophils that are blood stained and counted at the 10th day post-injection.

CXCR1 = target: T1, CXCR1 (Homo sapiens, UniProt P25024); experiment: Flow cytometry binding to CXCR1-U2OS cells
T1 construct: host or cells: U2OS
T1 sequence (P25024 1-350): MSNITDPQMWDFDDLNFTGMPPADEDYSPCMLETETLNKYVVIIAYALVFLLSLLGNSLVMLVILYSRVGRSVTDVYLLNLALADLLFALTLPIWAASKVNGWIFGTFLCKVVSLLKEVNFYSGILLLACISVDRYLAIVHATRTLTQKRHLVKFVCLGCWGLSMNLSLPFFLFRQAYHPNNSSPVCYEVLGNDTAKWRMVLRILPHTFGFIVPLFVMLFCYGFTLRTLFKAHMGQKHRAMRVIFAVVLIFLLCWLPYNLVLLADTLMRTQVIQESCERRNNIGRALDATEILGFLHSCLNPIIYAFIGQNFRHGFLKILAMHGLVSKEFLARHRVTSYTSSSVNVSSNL
Protocol: (§2) Briefly, a cell line expressing functionally validated CXCR1 derived from U2OS cells was obtained from DiscoveRx and cultured per manufacturer's instructions (Cat #93-0226C3, DiscoveRx Corporation, Freemont, Calif.). The parental cell line U2OS was obtained from ATCC and cultured under the same conditions as the CXCR1 cells. Cell culture supernatants from Example 2 above were then tested for binding to cells by flow cytometry. The adherent U2OS or CXCR1-U2OS cells were dissociated with Accutase (Innovative Cell Technologies, Inc., San Diego, Calif.), neutralized with an equal volume of media containing 10% serum, centrifuged at 1000 g, and resuspended in PBS with 2% BSA. Next, cells were dispensed into microtiter plates to achieve between 30,000 to 300,000 cells per well, centrifuged again, and resuspended in cell culture supernatant containing expressed IgG, or a dilution of IgG-containing cell culture supernatant. A fluorescent-conjugated anti-Human Fc antibody was used to detect binding of the expressed BLV1H12-IL8 fusion proteins to cells.

Parental U2OS = experiment: Flow cytometry binding to parental U2OS cells; settings: cell culture supernatant
Protocol: as §2

B1: H12 (protein, listed as Bos taurus)
chain: CVIVHQKTTQQSSCPAGFRDCVACTPGPESCCRSGCDGARRRVGLRYFFDSTSPITTYTYEHHIDAW
modifications: H12
- binding to HEK293A cells transfected with NS2-3 of BVDV [1]: strongly binds
- binding to untransfected cells [2]: weakly bound

B2: bGCSF: bovine G-CSF (protein, listed as Bos taurus)
chain: TPLGPARSLPQSFLLKCLEQVRKIQADGAELQERLCAAHKLCHPEELMLLRHSLGIPQAPLSSCSSQSLQLTSCLNQLHGGLFLYQGLLQALAGISPELAPTLDTLQLDVTDFATNIWLQMEDLGAAPAVQPTQGAMPTFTSAFQRRAGGVLVASQLHRFLELAYRGLRYLAEP
modifications: bGCSF
notes: bovine G-CSF
- F.I. (fluorescence at 595 nm, AlamarBlue, cell viability) (Mouse NFS-60 cells; 0.09145 ng/mL): 1214
- F.I. (fluorescence at 595 nm, AlamarBlue, cell viability) (Mouse NFS-60 cells; 0.27435 ng/mL): 1360.925
- F.I. (fluorescence at 595 nm, AlamarBlue, cell viability) (Mouse NFS-60 cells; 0.82305 ng/mL): 1761
- F.I. (fluorescence at 595 nm, AlamarBlue, cell viability) (Mouse NFS-60 cells; 2.46914 ng/mL): 2101
- F.I. (fluorescence at 595 nm, AlamarBlue, cell viability) (Mouse NFS-60 cells; 7.40741 ng/mL): 2405
- F.I. (fluorescence at 595 nm, AlamarBlue, cell viability) (Mouse NFS-60 cells; 22.22222 ng/mL): 2646
- F.I. (fluorescence at 595 nm, AlamarBlue, cell viability) (Mouse NFS-60 cells; 66.66667 ng/mL): 2812.098
- F.I. (fluorescence at 595 nm, AlamarBlue, cell viability) (Mouse NFS-60 cells; 200 ng/mL): 3087.144
- Number of CD45RA-CD41- (Human mPB CD34+ cells; 0.55886 ng/mL): 7354
- Number of CD45RA-CD41- (Human mPB CD34+ cells; 1.67657 ng/mL): 9776
- Number of CD45RA-CD41- (Human mPB CD34+ cells; 5.02972 ng/mL): 12700
- Number of CD45RA-CD41- (Human mPB CD34+ cells; 15.08916 ng/mL): 13200
- Number of CD45RA-CD41- (Human mPB CD34+ cells; 45.26749 ng/mL): 13700
- Number of CD45RA-CD41- (Human mPB CD34+ cells; 135.80247 ng/mL): 13300
- Number of CD45RA-CD41- (Human mPB CD34+ cells; 407.40741 ng/mL): 13700
- Number of CD45RA-CD41- (Human mPB CD34+ cells; 1222.22222 ng/mL): 14100
- Number of CD45RA-CD41- (Human mPB CD34+ cells; 3666.66667 ng/mL): 13100
- Number of CD45RA-CD41- (Human mPB CD34+ cells; 11000 ng/mL): 13800
- Percentage (blood level normalized to first time point, 30 min) ([3]; 0.5 hour): 100.00%
- Percentage (blood level normalized to first time point, 30 min) ([3]; 1 hour): 79.52%
- Percentage (blood level normalized to first time point, 30 min) ([3]; 3 hour): 56.81%
- Percentage (blood level normalized to first time point, 30 min) ([3]; 6 hour): 14.94%
- Percentage (blood level normalized to first time point, 30 min) ([3]; 24 hour): 4.08%
- Percentage (blood level normalized to first time point, 30 min) ([3]; 48 hour): 0.00%
- Percentage (blood level normalized to first time point, 30 min) ([3]; 72 hour): 0.00%
- Percentage of Neutrophil (mice neutrophils): 16.48

B3: BLV1H12-IL8: human IL-8 (amino acids 26-99) replacing the knob domain of BLV1H12 CDR3H, SEQ ID NO: 38 (antibody)
heavy: QVQLRESGPSLVKPSQTLSLTCTASGFSLSDKAVGWVRQAPGKALEWLGSIDTGGNTGYNPGLKSRLSITKDNSKSQVSLSVSSVTTEDSATYYCTSVHQETKKYQSPRSAKELRCQCIKTYSKPFHPKFIKELRVIESGPHCANTEIIVKLSDGRELCLDPKENWVQRVVEKFLKRAENSGSGSYTYNYEWHVDVWGQGLLVTV
- specificity (ratio of median fluorescence of CXCR1-U2OS cells versus U2OS parental cells) (CXCR1): has specificity for CXCR1
- Median Arbitrary Fluorescence Units (IgG binding) (CXCR1; CXCR1-U2OS cells, cell culture supernatant, flow cytometry): 707 AFU
- Median Arbitrary Fluorescence Units (IgG binding) (Parental U2OS): 76 AFU

B4: hGCSF: human G-CSF (protein, UniProt P09919 31-207, looked up)
Granulocyte …: TPLGPASSLPQSFLLKCLEQVRKIQGDGAALQEKLVSECATYKLCHPEELVLLGHSLGIPWAPLSSCPSQALQLAGCLSQLHSGLFLYQGLLQALEGISPELGPTLDTLQLDVADFATTIWQQMEELGMAPALQPTQGAMPAFASAFQRRAGGVLVASHLQSFLEVSYRVLRHLAQP
- F.I. (fluorescence at 595 nm, AlamarBlue, cell viability) (Mouse NFS-60 cells; 0.09145 ng/mL): 1266.554
- F.I. (fluorescence at 595 nm, AlamarBlue, cell viability) (Mouse NFS-60 cells; 0.27435 ng/mL): 1478.287
- F.I. (fluorescence at 595 nm, AlamarBlue, cell viability) (Mouse NFS-60 cells; 0.82305 ng/mL): 1752.216
- F.I. (fluorescence at 595 nm, AlamarBlue, cell viability) (Mouse NFS-60 cells; 2.46914 ng/mL): 2224.028
- F.I. (fluorescence at 595 nm, AlamarBlue, cell viability) (Mouse NFS-60 cells; 7.40741 ng/mL): 2587.222
- F.I. (fluorescence at 595 nm, AlamarBlue, cell viability) (Mouse NFS-60 cells; 22.22222 ng/mL): 2751.249
- F.I. (fluorescence at 595 nm, AlamarBlue, cell viability) (Mouse NFS-60 cells; 66.66667 ng/mL): 2815.37
- F.I. (fluorescence at 595 nm, AlamarBlue, cell viability) (Mouse NFS-60 cells; 200 ng/mL): 2948.509
- Number of CD45RA-CD41- (Human mPB CD34+ cells; 4.11523 ng/mL): 5900
